Key:
[1] = target: T1, prostate-specific membrane antigen (PSMA) (human, UniProt Q04609 1-750); assay: flow cytometry binding, 22Rv1 cells; 0 enza (untreated)
[2] = target: T1, prostate-specific membrane antigen …; assay: flow cytometry binding, 22Rv1 cells; 2 wk enza
[3] = target: T1, prostate-specific membrane antigen …; assay: flow cytometry binding, 22Rv1 cells; 1 wk enza
[4] = target: T1, prostate-specific membrane antigen …; assay: flow cytometry binding, 22Rv1 cells; 3 wk enza

T1 sequence (Q04609 whole entry): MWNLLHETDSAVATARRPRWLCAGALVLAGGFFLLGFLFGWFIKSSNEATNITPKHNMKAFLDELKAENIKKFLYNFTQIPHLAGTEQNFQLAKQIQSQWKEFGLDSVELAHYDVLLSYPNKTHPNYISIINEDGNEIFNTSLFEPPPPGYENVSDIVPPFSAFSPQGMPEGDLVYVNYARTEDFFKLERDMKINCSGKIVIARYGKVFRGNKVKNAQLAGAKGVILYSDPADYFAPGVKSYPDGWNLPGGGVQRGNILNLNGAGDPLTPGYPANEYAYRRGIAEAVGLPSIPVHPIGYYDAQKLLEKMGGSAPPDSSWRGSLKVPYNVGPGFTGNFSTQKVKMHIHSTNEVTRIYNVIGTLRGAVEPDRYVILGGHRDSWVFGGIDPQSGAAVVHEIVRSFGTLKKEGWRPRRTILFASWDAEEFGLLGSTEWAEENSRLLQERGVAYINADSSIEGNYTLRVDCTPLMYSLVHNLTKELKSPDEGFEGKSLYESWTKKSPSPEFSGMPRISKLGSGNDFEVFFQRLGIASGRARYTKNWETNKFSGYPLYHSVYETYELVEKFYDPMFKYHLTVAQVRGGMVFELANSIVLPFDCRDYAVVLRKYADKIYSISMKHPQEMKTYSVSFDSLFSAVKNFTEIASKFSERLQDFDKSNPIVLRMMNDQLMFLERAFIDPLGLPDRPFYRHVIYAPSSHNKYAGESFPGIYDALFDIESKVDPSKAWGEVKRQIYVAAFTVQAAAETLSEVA

B1: FITC-labeled anti-PSMA monoclonal antibody 107-1A4 (Acris) (antibody, V domains shown)
VH: EIQLQQSGPELVKPGASVKMSCKASGYTFTDYYMHWVKQNNGESLEWIGYFNPYNDYTRYNQNFNGKATLTVDKSSSTAYMQLNSLTSEDSAFYYCARSDGYYDAMDYWGQGTSVTVSS
VL: DVQITQSPSYLAASPGETITINCRASKSISKYLAWYQEKPGKANKLLIHSGSTLQSGIPSRFSGSGSGTDFTLTISSLEPEDFAMYYCQQHIEYPWTFGGGTKLEIKR
An EC50 [1] of 2.2 nM, an EC50 [2] of 2.5 nM and an EC50 [3] of 2.3 nM were found for B1 in this work. The EC50 [4] was 2.7 nM.

Source: patent US20180022819A1 (published 2018)
